Measured values reported in patent US20190255093A1.

What was measured:
[1] = biological target: murine proMyostatin (mouse) (UniProt O08689); test: method not stated
[2] = biological target: latent myostatin in serum and muscle of mice (mouse) (UniProt O08689); test: cell-based or functional assay

Substance | Kd [1] | latent myostatin signal in muscle (fluorescent western blot, normalized to total protein, compared to WT mice) [2]
SRK-015 (antibody) | 8.35 nM | –
muSRK-015 (antibody) | 2.57 nM | –
muSRK-015P (antibody) | 2.88 nM | 3 fold
